Where “and” joins values, the source holds several entries; their conditions need not be identical. Equal entries are not always repeated.
T1: huFcεRI-ECD-Fc (IgE receptor fusion) (human, UniProt P12319 26-205)
T1 construct: extracellular domain; not shown: Fc part
T1 sequence (looked up): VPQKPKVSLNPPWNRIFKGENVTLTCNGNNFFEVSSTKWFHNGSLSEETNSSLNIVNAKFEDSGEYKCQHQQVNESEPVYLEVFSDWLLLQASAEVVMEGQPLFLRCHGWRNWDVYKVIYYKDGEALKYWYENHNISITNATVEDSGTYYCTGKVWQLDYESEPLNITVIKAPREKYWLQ

T2: native human FcγRIIA (CD32A) on K562 erythroleukemia cells (human, UniProt P12318 34-317)
T2 construct: also called huFcγRIIA (CD32A); native FcγRIIA
T2 sequence: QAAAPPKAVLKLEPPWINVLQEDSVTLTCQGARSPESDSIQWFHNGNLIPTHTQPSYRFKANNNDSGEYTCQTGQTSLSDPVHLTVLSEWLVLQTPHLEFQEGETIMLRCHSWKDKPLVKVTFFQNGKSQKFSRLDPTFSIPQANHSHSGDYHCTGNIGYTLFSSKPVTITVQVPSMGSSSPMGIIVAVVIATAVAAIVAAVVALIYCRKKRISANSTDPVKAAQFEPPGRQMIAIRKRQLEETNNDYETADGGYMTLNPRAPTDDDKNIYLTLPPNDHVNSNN

B1: 5A6/22E7 knob in holes, hingeless bispecific antibody (anti-FcγRIIB/anti-FcεRI) (bispecific antibody)
chain 1: EVKLEESGGGLVQPGGSMKLSCVASGFTFSDAWMDWVRQSPERGLEWVAEIRSKPNNHATYYAESVKGRFTISRDDSKSSVYLQMTSLRPEDTGIYYCTHFDYWGQGTTLTVSSAKTTGPSVFPLAPSSKSTSGGTAALGCLVKDYFPEPVTVSWNSGALTSGVHTFPAVLQSSGLYSLSSVVTVPSSSLGTQTYICNVNHKPSNTKVDKKVEPKSCDKTHTSPPSPAPELLGGPSVFLFPPKPKDTLMISRTPEVTCVVVDVSHEDPEVKFNWYVDGVEVHNAKTKPREEQYNSTYRVVSVLTVLHQDWLNGKEYKCKVSNKALPAPIEKTISKAKGQPREPQVYTLPPSRDELTKNQVSLWCLVKGFYPSDIAVEWESNGQPENNYKTTPPVLDSDGSFFLYSKLTVDKSRWQQGNVFSCSVMHEALHNHYTQKSLSLSPEL
chain 2: DIQMTQSPSSLSASLGERVSLTCRASQEISGYLSWFQQKPDGTIKRLIYAASALDSGVPKRFSGSWSGSDYSLTISSLESEDFADYYCLQYVSYPLTFGAGTKLELKRTVAAPSVFIFPPSDEQLKSGTASVVCLLNNFYPREAKVQWKVDNALQSGNSQESVTEQDSKDSTYSLSSTLTLSKADYEKHKVYACEVTHQGLSSPVTKSFNRGEC
chain 3: EVKLVESGGGLVKPGGSLKLSCAASGFTFSSYGMSWVRQTPEKRLEWVATISGGNNYTFYPDNLKGRFTISRDNAKNILYLQISSLRSVDTALYYCASLWYRASFAYWGQGTLVTVSSAKTTGPSVFPLAPSSKSTSGGTAALGCLVKDYFPEPVTVSWNSGALTSGVHTFPAVLQSSGLYSLSSVVTVPSSSLGTQTYICNVNHKPSNTKVDKKVEPKSCDKTHTSPPSPAPELLGGPSVFLFPPKPKDTLMISRTPEVTCVVVDVSHEDPEVKFNWYVDGVEVHNAKTKPREEQYNSTYRVVSVLTVLHQDWLNGKEYKCKVSNKALPAPIEKTISKAKGQPREPQVYTLPPSRDELTKNQVSLSCAVKGFYPSDIAVEWESNGQPENNYKTTPPVLDSDGSFFLVSKLTVDKSRWQQGNVFSCSVMHEALHNHYTQKSLSLSPEL
chain 4: DIMMTQSPSSMYASLGERVTITCKASQDINSYLSWFQQKPGKSPKTLISRANRLVDGVPSRFSGSGSGQDYSLTISSLEYEDMGIYYCLQYDDFPFTFGGGTKVEIKRTVAAPSVFIFPPSDEQLKSGTASVVCLLNNFYPREAKVQWKVDNALQSGNSQESVTEQDSKDSTYSLSSTLTLSKADYEKHKVYACEVTHQGLSSPVTKSFNRGEC

Experiments:
[1] = target: T3, GST-huFcγRIIB (human FcγRIIB extracellular domain-Gly-His6-GST fusion protein) (human, UniProt P08515 1-218 = GST); assay: sandwich (bridging) ELISA, FIG. 29: plate FcγRIIB-His6-GST, antibody titrated, then huFcεRI-ECD-Fc and IgE-biotin/streptavidin-HRP; signal needs both arms
T3 construct: Expressed in 293 cells; also called FcγRIIB-His6-GST; huFcγRIIB-His6-GST

[2] = target: T1, huFcεRI-ECD-Fc (IgE receptor fusion); assay: sandwich (bridging) ELISA, FIG. 30: plate huFcεRI-ECD-Fc, antibody titrated, then FcγRIIB-His6-GST and anti-GST-biotin/streptavidin-HRP; signal needs both arms, so the value does not measure 22E7 on FcεRI alone
[3] = target: T1, huFcεRI-ECD-Fc (IgE receptor fusion); assay: sandwich (bridging) ELISA, FIG. 30: plate huFcεRI-ECD-Fc, antibody titrated, then FcγRIIB-His6-GST and anti-GST-biotin/streptavidin-HRP; signal needs both arms
Procedure: ELISA plates were coated overnight at 4° C. with 100 μl of a 1 μg/ml solution of huFcεRI-ECD-Fc in PBS, pH 7.4. The plate was washed with PBS and blocked with 1% Casein blocker in PBS. The wells were washed three times with PBS/0.05% TWEEN®. Serial dilutions of 5A6/22E7 bispecific antibodies, 5A6 antibodies, or 22E7 antibody were prepared in ELISA Diluent buffer and added to wells at 100 μl/well of each dilution. The plates were incubated for 1 hour at room temperature. After washing the plate three times with PBS/0.05% TWEEN®, FcγRIIB-His₆-GST was added to each well at 100 μl of 1 μg/ml in the presence of 10 μg/ml of CD4-IgG to block FcγRIIB-His₆-GST binding to Fc portion of the test antibody, huFcεRI-ECD-Fc and secondary antibody (anti-GST-biotin) and incubated for 1 hour at room temperature. After washing the plate three times with PBS/0.05% TWEEN®, 100 μl of 1 μg/ml anti-GST-biotin was added to each well and incubated for 1 hour at room temperature. The plate was washed with PBS/0.05% TWEEN® and incubated 30 minutes with 100 μl/well of 1:2000 Streptavidin-HRP in Elisa diluent buffer. After washing with PBS/0.05% TWEEN®, the plate was incubated 5 minutes with 100 μl TMB substrate. The reaction was quenched with 100 μl/well stop solution and the plate read at 630 nm. […]

[4] = target: T2, native human FcγRIIA (CD32A) on K562 …; assay: indirect immunofluorescence, flow cytometry on K562 cells (FIG. 16)
Source text: Indirect immunofluorescence binding analysis of 5A6 MAb to native FcγRIIA expressed on K562 erythroleukemia cells (ATCC No. CCL-243) is presented in FIG. 16. Separated aliquots of K562 cells were stained with either a mIgG1 isotype control (mopc 21), 5A6 (anti-human FcγRIIB) monoclonal antibody or Medarex 4.3 MAb (anti-human FcγRIIA/B) monoclonal antibody.

[5] = target: T3, GST-huFcγRIIB (human FcγRIIB …); assay: ELISA, plate-coated GST fusion (FIG. 6)
[6] = target: B1; assay: flow cytometry, RBL huFcεRI+huFcγRIIB1 and +huFcγRIIB2 cells (FIGS. 40, 41)

Row | Binder | IC50 [1] | IC50 [3] | ECD to bispecific ratio at which binding to cells is decreased (complete blocking only with both ECDs) [6] | also measured
1 | 22E7 MAb (anti-human FcεRI monoclonal antibody) (antibody) chain 1: EVKLVESGGGLVKPGGSLKLSCAASGFTFSSYGMSWVRQTPEKRLEWVATISGGNNYTFYPDNLKGRFTISRDNAKNILYLQISSLRSVDTALYYCASLWYRASFAYWGQGTLVTVSS chain 2: DIMMTQSPSSMYASLGERVTITCKASQDINSYLSWFQQKPGKSPKTLISRANRLVDGVPSRFSGSGSGQDYSLTISSLEYEDMGIYYCLQYDDFPFTFGGGTKVEIK | 100 µg/mL | – | – | IC50 [2]: 2800 µg/mL
2 | 5A6/22E7 knob in holes, wild type hinge, bispecific antibody (bispecific antibody) chain 1: EVKLEESGGGLVQPGGSMKLSCVASGFTFSDAWMDWVRQSPERGLEWVAEIRSKPNNHATYYAESVKGRFTISRDDSKSSVYLQMTSLRPEDTGIYYCTHFDYWGQGTTLTVSSAKTTGPSVFPLAPSSKSTSGGTAALGCLVKDYFPEPVTVSWNSGALTSGVHTFPAVLQSSGLYSLSSVVTVPSSSLGTQTYICNVNHKPSNTKVDKKVEPKSCDKTHTCPPCPAPELLGGPSVFLFPPKPKDTLMISRTPEVTCVVVDVSHEDPEVKFNWYVDGVEVHNAKTKPREEQYNSTYRVVSVLTVLHQDWLNGKEYKCKVSNKALPAPIEKTISKAKGQPREPQVYTLPPSRDELTKNQVSLWCLVKGFYPSDIAVEWESNGQPENNYKTTPPVLDSDGSFFLYSKLTVDKSRWQQGNVFSCSVMHEALHNHYTQKSLSLSPEL chain 2: DIQMTQSPSSLSASLGERVSLTCRASQEISGYLSWFQQKPDGTIKRLIYAASALDSGVPKRFSGSWSGSDYSLTISSLESEDFADYYCLQYVSYPLTFGAGTKLELKRTVAAPSVFIFPPSDEQLKSGTASVVCLLNNFYPREAKVQWKVDNALQSGNSQESVTEQDSKDSTYSLSSTLTLSKADYEKHKVYACEVTHQGLSSPVTKSFNRGEC chain 3: not shown chain 4: DIMMTQSPSSMYASLGERVTITCKASQDINSYLSWFQQKPGKSPKTLISRANRLVDGVPSRFSGSGSGQDYSLTISSLEYEDMGIYYCLQYDDFPFTFGGGTKVEIKRTVAAPSVFIFPPSDEQLKSGTASVVCLLNNFYPREAKVQWKVDNALQSGNSQESVTEQDSKDSTYSLSSTLTLSKADYEKHKVYACEVTHQGLSSPVTKSFNRGEC | 0.0552 µg/mL and 0.076 µg/mL | 0.49 µg/mL and 0.291 µg/mL | – | –
3 | B1 | 0.023 µg/mL | 0.0765 µg/mL | – | –
4 | Antibody 5A6.2.1 (anti-human FcγRIIB monoclonal antibody) (antibody, 5A6(A) and 5A6(B) are two protein preps of 5A6; also called 5A6 MAb; 5A6 mIgG1) VH: EVKLEESGGGLVQPGGSMKLSCVASGFTFSDAWMDWVRQSPERGLEWVAEIRSKPNNHATYYAESVKGRFTISRDDSKSSVYLQMTSLRPEDTGIYYCTHFDYWGQGTTLTVSSAKTTGPSVFPLAPSSKSTSGGTAALGCLVKDYFPEPVTVSWNSGALTSGVHTFPAVLQSSGLYSLSSVVTVPSSSLGTQTYICNVNHKPSNTKVDKKVEPKSCDKTHT VL: DIQMTQSPSSLSASLGERVSLTCRASQEISGYLSWFQQKPDGTIKRLIYAASALDSGVPKRFSGSWSGSDYSLTISSLESEDFADYYCLQYVSYPLTFGAGTKLELKRTVAAPSVFIFPPSDEQLKSGTASVVCLLNNFYPREAKVQWKVDNALQSGNSQESVTEQDSKDSTYSLSSTLTLSKADYEKHKVYACEVTHQGLSSPVTKSFNRGEC | – | – | – | binding result [4]: no binding; EC50 [5]: 0.06 nM
5 | huFcεRIα extracellular domain (huFcεRIα ECD) (receptor, human, UniProt P12319 26-205, looked up, extracellular domain; also called huFcεRI ECD) VPQKPKVSLNPPWNRIFKGENVTLTCNGNNFFEVSSTKWFHNGSLSEETNSSLNIVNAKFEDSGEYKCQHQQVNESEPVYLEVFSDWLLLQASAEVVMEGQPLFLRCHGWRNWDVYKVIYYKDGEALKYWYENHNISITNATVEDSGTYYCTGKVWQLDYESEPLNITVIKAPREKYWLQ | – | – | 10 ratio ECD:bispecific | –
6 | huFcγRIIB extracellular domain with C-terminal His6 tag (huFcγRIIB ECD) (receptor, Whole entry named; only the extracellular domain is in the construct; Baculovirus expression) TPAAPPKAVLKLEPQWINVLQEDSVTLTCRGTHSPESDSIQWFHNGNLIPTHTQPSYRFKANNNDSGEYTCQTGQTSLSDPVHLTVLSEWLVLQTPHLEFQEGETIVLRCHSWKDKPLVKVTFFQNGKSKKFSRSDPNFSIPQANHSHSGDYHCTGNIGYTLYSSKPVTITVQAPHHHHHH | – | – | 10 ratio ECD:bispecific | –
